For data set [1], the target named is T1, AGO2 (loaded with guide RNA) (Homo sapiens, UniProt Q9UKV8 1-859). Put plainly: filter binding; modest boost over m11_23; 18 mM HEPES pH 7.4, 100 mM K-acetate, 1 mM Mg-acetate, 0.01% IGEPAL, 0.01 mg/mL yeast tRNA, 5 mM DTT, BSA, glycerol, 37 C, 4 h, 1-5 pM target; kinetics with 10. The conditions noted are these: protein: recombinant, tags: 3xFLAG-SUMOEu1 (removed by SENPEuB cleavage), label: 32P target, offset +2.

The target of data set [2] is T1, AGO2 (loaded with guide RNA). Put plainly: filter binding; length-matched; slightly weaker than m2_6; 18 mM HEPES pH 7.4, 100 mM K-acetate, 1 mM Mg-acetate, 0.01% IGEPAL, 0.01 mg/mL yeast tRNA, 5 mM DTT, BSA, glycerol, 37 C, 4 h, 1-5 pM target; kinetics with 10. The conditions noted are these: protein: recombinant; tags: 3xFLAG-SUMOEu1 (removed by SENPEuB cleavage); label: 32P target; g11-23 and g2-5 paired, offset +2.

For data set [3] the target is unchanged. Put plainly: filter binding; no boost over m9_22; 18 mM HEPES pH 7.4, 100 mM K-acetate, 1 mM Mg-acetate, 0.01% IGEPAL, 0.01 mg/mL yeast tRNA, 5 mM DTT, BSA, glycerol, 37 C, 4 h, 1-5 pM target; kinetics with 10. The conditions noted are these: protein: recombinant, tags: 3xFLAG-SUMOEu1 (removed by SENPEuB cleavage), label: 32P target, offset +3.
Data set [4] has the same target. As to the kind of experiment: filter binding; modest boost over m9_22; 18 mM HEPES pH 7.4, 100 mM K-acetate, 1 mM Mg-acetate, 0.01% IGEPAL, 0.01 mg/mL yeast tRNA, 5 mM DTT, BSA, glycerol, 37 C, 4 h, 1-5 pM target; kinetics with 10. The conditions noted are these: protein: recombinant, tags: 3xFLAG-SUMOEu1 (removed by SENPEuB cleavage), label: 32P target, offset +3.

Residue numbers refer to the chain shown, from its start.

T1 sequence (Q9UKV8 whole entry): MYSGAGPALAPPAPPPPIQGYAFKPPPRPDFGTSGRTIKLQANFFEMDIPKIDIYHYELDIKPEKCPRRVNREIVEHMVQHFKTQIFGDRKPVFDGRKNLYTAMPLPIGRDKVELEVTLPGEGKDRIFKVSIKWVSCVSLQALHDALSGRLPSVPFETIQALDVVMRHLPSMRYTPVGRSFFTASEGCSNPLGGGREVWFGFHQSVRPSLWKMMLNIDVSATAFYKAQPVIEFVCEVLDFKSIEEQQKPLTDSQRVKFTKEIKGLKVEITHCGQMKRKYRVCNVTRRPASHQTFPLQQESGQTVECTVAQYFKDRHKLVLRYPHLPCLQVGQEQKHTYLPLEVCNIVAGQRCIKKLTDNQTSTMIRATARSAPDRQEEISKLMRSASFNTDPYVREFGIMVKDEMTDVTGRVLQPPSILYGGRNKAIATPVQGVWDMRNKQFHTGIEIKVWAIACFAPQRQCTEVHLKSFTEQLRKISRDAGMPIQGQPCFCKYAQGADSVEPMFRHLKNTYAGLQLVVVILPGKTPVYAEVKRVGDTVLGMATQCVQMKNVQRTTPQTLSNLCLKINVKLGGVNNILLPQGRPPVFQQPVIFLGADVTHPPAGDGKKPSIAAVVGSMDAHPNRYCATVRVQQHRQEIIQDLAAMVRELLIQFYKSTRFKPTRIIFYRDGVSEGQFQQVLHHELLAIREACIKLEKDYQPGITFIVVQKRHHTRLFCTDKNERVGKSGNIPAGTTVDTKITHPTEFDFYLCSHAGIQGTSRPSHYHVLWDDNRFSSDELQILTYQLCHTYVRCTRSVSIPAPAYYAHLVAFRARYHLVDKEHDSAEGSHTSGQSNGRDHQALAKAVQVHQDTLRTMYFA

B1: miR-155 mut / m11_23|+2|m2_5 (mixed)
RNA 1: UUCGUGCUAAUCGUGAUAGGGGU
RNA 2: UUUUUUACCCCUAUCACGACCUUUUUACGAUUUUUUUUUUUUUU
modifications: 5'-phosphate guide
For the molecule B1, the binding result in data set [1] (g11-23 and g2-5 paired) was “binds”.

B2: miR-155 mut / m11_23|+2|m2_6 (mixed)
RNA 1: UUCGUGCUAAUCGUGAUAGGGGU
RNA 2: UUUUACCCCUAUCACGACCUUUUCACGAUUUU
modifications: 5'-phosphate guide
In the case of B2, in data set [1] (g11-23 and g2-6 paired), the binding result is reported as “binds”.

B3: miR-155 mut / m11_23|+2|m2_5 (repeat) (mixed)
RNA 1: UUCGUGCUAAUCGUGAUAGGGGU
RNA 2: B2 RNA 2 with C24U
modifications: 5'-phosphate guide
In the case of B3, the binding result in data set [2] was “binds”.

B4: miR-124 mut / m9_22|+3|m2 (mixed)
RNA 1: UCUGGCUCGCGGUGAAUGCCAA
RNA 2: UUUUUUGGCAUUCACCGCUUUUUUUUUGUUUU
modifications: 5'-phosphate guide
Consider B4, for which the binding result in data set [3] (g9-22 and g2 paired) is on record as “binds”.

B5: miR-124 mut / m9_22|+3|m2_5 (mixed)
RNA 1: UCUGGCUCGCGGUGAAUGCCAA
RNA 2: B4 RNA 2 with U25C, U26C, U27A
modifications: 5'-phosphate guide
B5: the binding result in data set [4] (g9-22 and g2-5 paired) is reported as “binds”.

B6: miR-124 mut / m9_22|+3|m2_4 (mixed)
RNA 1: UCUGGCUCGCGGUGAAUGCCAA
RNA 2: B4 RNA 2 with U26C, U27A
modifications: 5'-phosphate guide
Take B6: in data set [4] (g9-22 and g2-4 paired), the binding result is on record as “binds”.

B7: miR-124 mut / m9_22|+3|m2_3 (mixed)
RNA 1: UCUGGCUCGCGGUGAAUGCCAA
RNA 2: B4 RNA 2 with U27A
modifications: 5'-phosphate guide
B7: the binding result in data set [3] (g9-22 and g2-3 paired) is listed as “binds”.

Source of the values: paper PMC12529927, “Functional microRNA targeting without seed pairing”.
